Experimental data as given in IntAct's records for PubMed 16720724.

B1: Activin receptor type-1B (Homo sapiens), P36896 (parent)
chain: MAESAGASSFFPLVVLLLAGSGGSGPRGVQALLCACTSCLQANYTCETDGACMVSIFNLDGMEHHVRTCIPKVELVPAGKPFYCLSSEDLRNTHCCYTDYCNRIDLRVPSGHLKEPEHPSMWGPVELVGIIAGPVFLLFLIIIIVFLVINYHQRVYHNRQRLDMEDPSCEMCLSKDKTLQDLVYDLSTSGSGSGLPLFVQRTVARTIVLQEIIGKGRFGEVWRGRWRGGDVAVKIFSSREERSWFREAEIYQTVMLRHENILGFIAADNKDNGTWTQLWLVSDYHEHGSLFDYLNRYTVTIEGMIKLALSAASGLAHLHMEIVGTQGKPGIAHRDLKSKNILVKKNGMCAIADLGLAVRHDAVTDTIDIAPNQRVGTKRYMAPEVLDETINMKHFDSFKCADIYALGLVYWEIARRCNSGGVHEEYQLPYYDLVPSDPSIEEMRKVVCDQKLRPNIPNWWQSYEALRVMGKMMRECWYANGAARLTALRIKKTLSQLSVQEDVKI

Variants of: B1
Settings: with smad7_human SMAD7, O15105
Chain of smad7_human SMAD7, O15105 (O15105 whole entry): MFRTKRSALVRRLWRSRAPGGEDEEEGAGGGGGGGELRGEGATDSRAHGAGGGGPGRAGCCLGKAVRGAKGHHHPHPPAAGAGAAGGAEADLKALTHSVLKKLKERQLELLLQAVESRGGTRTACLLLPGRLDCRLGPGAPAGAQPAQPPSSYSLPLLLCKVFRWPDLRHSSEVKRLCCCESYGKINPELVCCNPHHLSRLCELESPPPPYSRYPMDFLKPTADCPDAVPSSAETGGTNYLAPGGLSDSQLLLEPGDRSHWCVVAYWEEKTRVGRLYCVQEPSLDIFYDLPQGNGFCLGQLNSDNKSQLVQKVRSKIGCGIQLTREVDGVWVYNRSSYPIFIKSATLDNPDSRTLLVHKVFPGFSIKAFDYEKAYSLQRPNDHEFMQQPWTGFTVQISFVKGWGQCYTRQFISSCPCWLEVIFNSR

effect of a mutation on the interaction | Variant
increasing interaction | MAESAGASSFFPLVVLLLAGSGGSGPRGVQALLCACTSCLQANYTCETDGACMVSIFNLDGMEHHVRTCIPKVELVPAGKPFYCLSSEDLRNTHCCYTDYCNRIDLRVPSGHLKEPEHPSMWGPVELVGIIAGPVFLLFLIIIIVFLVINYHQRVYHNRQRLDMEDPSCEMCLSKDKTLQDLVYDLSTSGSGSGLPLFVQRTVAREIVLQEIIGKGRFGEVWRGRWRGGDVAVKIFSSREERSWFREAEIYQTVMLRHENILGFIAADNKDNGTWTQLWLVSDYHEHGSLFDYLNRYTVTIEGMIKLALSAASGLAHLHMEIVGTQGKPGIAHRDLKSKNILVKKNGMCAIADLGLAVRHDAVTDTIDIAPNQRVGTKRYMAPEVLDETINMKHFDSFKCADIYALGLVYWEIARRCNSGGVHEEYQLPYYDLVPSDPSIEEMRKVVCDQKLRPNIPNWWQSYEALRVMGKMMRECWYANGAARLTALRIKKTLSQLSVQEDVKI [T206E]
